In a protein production outcome set (Wang et al. 2014) one finds protein production data, which are given here for 7 sequences.

A short description of the series: label from the status in PepcDB records.
As to “MAAVSPAAAARSAAAAVRDGGEMVRRMTPQDLDRIAQAVAEAEKTTAGEIFCVLTPEVSDYRETPLVWAAASALVLPAGALLAGFRPEMLTRLFGGWSVGHQAAHDGAILSALSTYIVLQLVVFVVAALVVSIPPVRRALTPGALKTARVKRAAMEQFLSHGLHVTRDRTGVLIFAALAEHRVEVIADEGIYKAAPNAVWNEVVADLVAGLKRGKIADGFVAAVARTGGILAAHVPPRGDDRNELSDGLTILPRR”, the protein production entry is reported as “failed”.
For “MADCDSVTNSPLATATATLHTNRGDIKIALFGNHAPKTVANFVGLAQGTKDYSTQNASGGPSGPFYDGAVFHRVIQGFMIQGGDPTGTGRGGPGYKFADEFHPELQFDKPYLLAMANAGPGTNGSQFFITVGKTPHLNRRHTIFGEVIDAESQRVVEAISKTATDGNDRPTDPVVIESITIS” the value was “not failed”; for “MADERRCGVCRPLGGPRQPWPAGLLHCSSRAIFASLCMPRIVFAPAIQRHVAMPALDVGAATVAAALQAAFAREPRLRGYLLDDQGSLRRHVALFVDGVQVRDRRGLGDPLQDDSEIYVVQALSGGLEHHHHHH”, “failed”.
For “MADFLLELRSEEIPAGLQKMAVEKLAELLSAKLKEAGINPTKIEKYATPRRIALLMRDLPAKTEAVQEERRGPRADAPEKALAGFLRSTGLTKEELELRETPKGNFYYAHIEKPGQTLIALLGEAIPAIIKTFPWPKSMRWGNFSASSESLRWVRPLKGIVALIDEQLIPIELDGITSGTETKGHPFHHPDVVTLAKASDYPEKMAAAHVMIDFDARVQKITDEARKAAQKAGLTLIEDAALAQENAGLTEWPVPLLGRFDEAYLAVPREVIQLTMRTNQKYFACTDRNQDLAAVFICVADMEAQDGGKEITQGNEKVLSARLADARFFWEQDLKIPLEDWLPRLDSVLFYEGMGSVGDKAKRIAHLSGYIADQIGADRKQAERAGLLAKADLASNMVGEFPELQGVMGGYYAKAGNEAPDVVSAVSGQYQAEAGAGVAAAVSLADRIDSLACFFVRNIRPTGSKDPFALRRAAVQIIQTIIAHQLRLPLTPLFEKAGAGDQIESLLAFITERLKVQQREAGIRYDLIDAVLALGYEDDVIRLLARVQALQSFIESEDGSDLLAGYRRAVNILKGSEASEKGDISQEDIEQPEQDLQKALQAIEAPLEQALKAEDYAAAMTALASLRQPIDQFFDKVIVNHDKAGIRSRRLALLEQIRTAMHQVADFSVVEALTIEASGRKR” the value was “failed”.
For “MADHSLQRRLAAIVVADVVGYSRLMEADEAATLANLRELRSGVIEPAVMRHHGRIFKVMGDGFLIEFGSAVEAVAAALEMQRAATAVEASGDRRLLLRVGVNLGDVIDDGSDVLGDDVNVAARLQTQAAPGGICISANVHGEIDGKISDRFFDAGERYLKNLTRPVHVWHWPDALQSILPLPECPSIAVLPFTNMSGDEADAPFVDGLTEDLITDLSRTAGLFVIARNSVYVYKGKPVDVRLVAQELGVRYVLEGSARRAMGRVRINAQLVDTLAGQHLWADRFDRTVEDVFELQDEVNAKIVEALVGRLTIPTPRNRPKNFEAYDLCVRARLLTEESPQTEREAYMLLQRAVELEPSYAEALGLLAYNRWLAWTHFGEPEDPNRRMAATFAQKAVDLDPNDAGCRYVLGTILAYERRWEESEAAFAKALELDPNHADTWAAMSDMSVLDGRVADGLAQIEKALRLNPYPACWYLCHLGQAQYAARDYEAAAATLRRKDTYRTNSRKFLAATLAQLGHREEARRESELFLIAHPHFTIGHWLSSQPLRDASVRDHFVDGFRKAGLPEM” the value was “failed”.
Consider “MADKEAAFDDAVEERVINEEYKIWKKNTPFLYDLVMTHALEWPSLTAQWLPDVTRPDGKDFSIHRLVLGTHTSDEQNHLVIASVQLPNDDAQFDASHYDSEKGEFGGFGSVSGKIEIEIKINHEGEVNRARYMPQNPCIIATKTPSCDVLVFDYTKHPSKPDPSGECNPDLRLRGHQKEGYGLSWNPNLSGNLLSASDDHTICLWDISAVPKEGKVVDAKTIFTGHTAVVEDVSWHLLHESLFGSVADDQKLMIWDTRSNNTSKPSHSVDAHTAEVNCLSFNPYSEFILATGSADKTVALWDLRNLKLKLHSFESHKDEIFQVQWSPHNETILASSGTDRRLNVWDLSKIGEEQSPEDAEDGPPELLFIHGGHTAKISDFSWNPNEPWVICSVSEDNIMQVWQMAENIYNDEDTEGSVDPEGQGS”, for which the protein production result is given as “not failed”.
For “MADKTGTPHPLTEPGVWIERIGGRVFPPHLPALFLDRDGTINVDTDYPSDPAEIVLRPQMLPAIATANRAGIPVVVVTNQSGIARGYFGWSAFAAVNGRVLELLREEGVFVDMVLACAYHEAGVGPLAIPDHPMRKPNPGMLVEAGKRLALDLQRSLIVGDKLADMQAGKRAGLAQGWLVDGEAAVQPGFAIRPLRDSSELGDLLAAIETLGRDNRS” the value was “not failed”.
